The values below come from paper PMC11594477.

The experiment concerns the target human Flag-tagged RAC2 T108A mutant (human), P15153. In words: co-IP; Caki-1 cells transfected with Flag-tagged WT, S86A or T108A RAC2; interaction with NEDD4L quantified relative to WT. Conditions: remark: other sources report otherwise.

B1: Neural precursor cell expressed developmentally down-regulated 4-like (NEDD4L), endogenous, Q96PU5-5 1-955 (enzyme)
chain: MATGLGEPVYGLSEDEGESRILRVKVVSGIDLAKKDIFGASDPYVKLSLYVADENRELALVQTKTIKKTLNPKWNEEFYFRVNPSNHRLLFEVFDENRLTRDDFLGQVDVPLSHLPTEDPTMERPYTFKDFLLRPRSHKSRVKGFLRLKMAYMPKNGGQDEENSDQRDDMEHGWEVVDSNDSASQHQEELPPPPLPPGWEEKVDNLGRTYYVNHNNRTTQWHRPSLMDVSSESDNNIRQINQEAAHRRFRSRRHISEDLEPEPSEGGDVPEPWETISEEVNIAGDSLGLALPPPPASPGSRTSPQELSEELSRRLQITPDSNGEQFSSLIQREPSSRLRSCSVTDAVAEQGHLPPPSVAYVHTTPGLPSGWEERKDAKGRTYYVNHNNRTTTWTRPIMQLAEDGASGSATNSNNHLIEPQIRRPRSLSSPTVTLSAPLEGAKDSPVRRAVKDTLSNPQSPQPSPYNSPKPQHKVTQSFLPPGWEMRIAPNGRPFFIDHNTKTTTWEDPRLKFPVHMRSKTSLNPNDLGPLPPGWEERIHLDGRTFYIDHNSKITQWEDPRLQNPAITGPAVPYSREFKQKYDYFRKKLKKPADIPNRFEMKLHRNNIFEESYRRIMSVKRPDVLKARLWIEFESEKGLDYGGVAREWFFLLSKEMFNPYYGLFEYSATDNYTLQINPNSGLCNEDHLSYFTFIGRVAGLAVFHGKLLDGFFIRPFYKMMLGKQITLNDMESVDSEYYNSLKWILENDPTELDLMFCIDEENFGQTYQVDLKPNGSEIMVTNENKREYIDLVIQWRFVNRVQKQMNAFLEGFTELLPIDLIKIFDENELELLMCGLGDVDVNDWRQHSIYKNGYCPNHPVIQWFWKAVLLMDAEKRIRLLQFVTGTSRVPMNGFAELYGSNGPQLFTIEQWGSPEKLPRAHTCFNRLDLPPYETFEDLREKLLMAVENAQGFEGVD
Molecule B1 had an interaction, percent of the WT level (% of the WT level) of 20.
